Data on four molecules can be found in patent publication US20260191907A1 (INSTITUT CURIE, published 2026).

Assay [1] concerns the target T1, FGFR4 expressed on the surface of RMS cells (Rh4-FR4 wt, Rh30) (human, UniProt P22455 22-802).
T1 construct: Endogenous FGFR4 of the rhabdomyosarcoma cell lines; The whole entry includes the signal peptide; also called cell-surface FGFR4; Rh4-FR4 wt cells
Kind of assay: flow cytometry of DiR fluorescence, liposomes at 0.5 mM lipid on Rh4-FR4 wt cells; reference L-mCh. As to the method:
(§1) Samples were analyzed after two washes by flow cytometry on a MACSQuant® cytometer (Miltenyi) and results were analyzed with FlowJo™ software (BD Biosciences, France). Phages displaying anti-mCherry nanobodies were used as negative control²⁴ and as positive control we used an anti-FGFR4 antibody (BT53, kindly provided by J. Khan lab, NCI, Bethesda, MD). For binding test of recombinant nanobodies, cells were detached with Accutase® (Stemcell Technologies) and washed with PBS. All following steps were performed on ice: 4×10⁵ cells were incubated with nanobody concentrations of 30 μg/ml for 1 h, washed once with PBS and incubated for an additional 30 min with anti His-tag FITC labeled antibody (LS-C57341, LSBioscience, diluted 1:10). The cells were washed once more with PBS and analyzed. Targeting liposomes were added at 0.5 mM final lipid concentration to cells in 96-well plates and incubated for 2 h at 37° C. and 5% CO₂. The cells were washed twice with PBS and detached with Accutase®.
(§2) We next wanted to test if nanobodies on the liposomal surface can still bind to FGFR4 expressing RMS cells. Rh4-FR4 wt and Rh4-FR4ko cells were incubated for 2 h with FGFR4-targeted liposomes or mCherry-targeted control liposomes under normal cell culture conditions. DiR fluorescence was subsequently analyzed by flow cytometry (FIG. 5).
A general note: Flow cytometry measures light scatter and fluorescence of single cells or particles in a stream.

Assay [2] addresses T1, FGFR4 expressed on the surface of RMS …. Briefly: flow cytometry of DiR fluorescence, liposomes at 0.5 mM lipid on Rh4-FR4 wt cells, 2 h at 37 °C. As to the method:
as §1, with “Binding validation of selected phages, recombinant nanobodies and decorated liposomes was performed on Rh4-FR4 wt and Rh4-FR4ko cells. Specificity of selected phage clones binding to FGFR4 was determined by flow cytometry in 96-well plates (Becton Dickinson). Cell surface staining of Rh4-FR4 wt or Rh4-FR4ko cells was performed on ice in PBS supplemented with 1% FBS. 80 μL phages+20 μL PBS/1% milk were incubated on 1×10⁵ cells for 1 h on ice. […] Samples” for “Samples”
as §2

T1 sequence (P22455 22-802 limits assumed): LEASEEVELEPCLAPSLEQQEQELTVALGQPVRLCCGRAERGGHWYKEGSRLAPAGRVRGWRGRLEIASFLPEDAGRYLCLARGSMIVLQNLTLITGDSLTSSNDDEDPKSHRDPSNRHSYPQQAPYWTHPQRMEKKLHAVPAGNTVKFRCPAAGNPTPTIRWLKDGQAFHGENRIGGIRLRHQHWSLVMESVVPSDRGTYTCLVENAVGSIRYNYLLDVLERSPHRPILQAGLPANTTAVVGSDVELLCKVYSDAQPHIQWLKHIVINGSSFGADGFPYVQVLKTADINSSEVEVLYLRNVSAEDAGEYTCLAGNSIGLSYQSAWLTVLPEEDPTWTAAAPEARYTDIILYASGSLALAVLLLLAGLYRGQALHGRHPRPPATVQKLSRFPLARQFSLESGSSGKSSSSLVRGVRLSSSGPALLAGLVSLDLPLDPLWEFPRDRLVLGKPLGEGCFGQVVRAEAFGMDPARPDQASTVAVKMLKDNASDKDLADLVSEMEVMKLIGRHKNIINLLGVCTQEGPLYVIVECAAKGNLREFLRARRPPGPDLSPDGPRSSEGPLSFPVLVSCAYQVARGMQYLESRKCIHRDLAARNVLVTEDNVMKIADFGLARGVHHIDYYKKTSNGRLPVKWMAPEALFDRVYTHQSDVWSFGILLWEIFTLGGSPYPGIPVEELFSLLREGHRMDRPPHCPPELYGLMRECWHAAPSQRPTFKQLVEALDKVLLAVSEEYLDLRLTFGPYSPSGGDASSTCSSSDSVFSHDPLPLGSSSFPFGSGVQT

B1: L-F8, VCR-loaded fluorescent liposomes decorated with nanobody F8 (other)
VHH: EVQLVESGGGLVQPGGSLRLSCAASGTGYALDDMGWVRQAPGKGLEWVSAISDDESMADYYADSVKGRFTISRDNSKNTVYLQMNSLRAEDTAVYYCASYKEYKYQSGHHYFAYRGQGTLVTVSS
modifications: C-terminal cysteine coupled to DSPE-PEG-maleimide on the liposomal surface
notes: Liposome as for L-A8; also called FGFR4-targeted liposomes; not shown: C-terminal Myc/6xHis-tag and an additional cysteine
Take B1: the “fold increase of MFI over L-mCh” value in assay [1] stood at 28 fold. In assay [2], this molecule came in with an MFI of 1400 MFI.

B2: L-A8, VCR-loaded fluorescent liposomes decorated with nanobody A8 (other)
VHH: EVQLQASGGGFVQPGGSLRLSCAASGRTYSRDTMGWFRQAPGKEREFVSAISSRHSHTTYYADSVKGRFTISRDNSKNTVYLQMNSLRAEDTATYYCAEWDVFDMHYALPPMWYWGQGTQVTVSS
modifications: C-terminal cysteine coupled to DSPE-PEG-maleimide on the liposomal surface
notes: Liposome of egg sphingomyelin, cholesterol, PEG-ceramide, DSPE-PEG-maleimide and DiR, loaded with vincristine; also called FGFR4-targeted liposomes; not shown: C-terminal Myc/6xHis-tag and an additional cysteine
In the case of B2, the “fold increase of MFI over L-mCh” value in assay [1] came to 6 fold. In assay [2], this molecule showed an MFI of 300 MFI.

B3: L-B1, VCR-loaded fluorescent liposomes decorated with nanobody B1 (other)
VHH: EVQLQASGGGFVQPGGSLRLSCAASGYTSRSSAMGWFRQAPGKEREFVSAISDLTGYPYYYADSVKGRFTISRDNSKNTVYLQMNSLRAEDTATYYCAAYQDDKWTYGSQHGKYWGQGTQVTVSS
modifications: C-terminal cysteine coupled to DSPE-PEG-maleimide on the liposomal surface
notes: as for B1
With B3, the “fold increase of MFI over L-mCh” value in assay [1] was found to be 12 fold. Besides, the MFI in assay [2] stood at 600 MFI.

B4: L-B5, VCR-loaded fluorescent liposomes decorated with nanobody B5 (other)
VHH: EVQLQASGGGFVQPGGSLRLSCAASGRTSWLTTMGWFRQAPGKEREFVSAISSFSSKQGYYADSVKGRFTISRDNSKNTVYLQMNSLRAEDTATYYCAYASYPRHQGNGRWKDFVEYWGQGTQVTVSS
modifications: C-terminal cysteine coupled to DSPE-PEG-maleimide on the liposomal surface
notes: as for B1
For the molecule B4, the “fold increase of MFI over L-mCh” value in assay [1] was 34 fold. This molecule also displayed an MFI in assay [2] of 1700 MFI.
